Format in all cases: biochemical, Arabidopsis thaliana
Details in all cases: 1 mM MnCl2, 0.5 mM dithiothreitol, 50 mM Tris-HCl pH 7.4, 32 °C

For data set [1], the system named is O=C(O)CC[C@H](NC(=O)Cc1c[nH]c2ccccc12)C(=O)O. The experiment in a line: HPLC of hydrolysis product, kinetics.
The subject of data set [2] is O=C(O)C[C@H](NC(=O)CC1C(=O)Nc2ccccc21)C(=O)O. The experiment in a line: HPLC of hydrolysis product, kinetics.
Data set [3] concerns O=C(O)C[C@H](NC(=O)Cc1c[nH]c2ccccc12)C(=O)O. The experiment in a line: HPLC of hydrolysis product, kinetics.
Data set [4] deals with O=C(O)CC[C@H](NC(=O)CC1C(=O)Nc2ccccc21)C(=O)O. In words: HPLC of hydrolysis product, Lineweaver-Burk.

Chain of GST-ILR1 (Arabidopsis thaliana) (chain, as listed by the source): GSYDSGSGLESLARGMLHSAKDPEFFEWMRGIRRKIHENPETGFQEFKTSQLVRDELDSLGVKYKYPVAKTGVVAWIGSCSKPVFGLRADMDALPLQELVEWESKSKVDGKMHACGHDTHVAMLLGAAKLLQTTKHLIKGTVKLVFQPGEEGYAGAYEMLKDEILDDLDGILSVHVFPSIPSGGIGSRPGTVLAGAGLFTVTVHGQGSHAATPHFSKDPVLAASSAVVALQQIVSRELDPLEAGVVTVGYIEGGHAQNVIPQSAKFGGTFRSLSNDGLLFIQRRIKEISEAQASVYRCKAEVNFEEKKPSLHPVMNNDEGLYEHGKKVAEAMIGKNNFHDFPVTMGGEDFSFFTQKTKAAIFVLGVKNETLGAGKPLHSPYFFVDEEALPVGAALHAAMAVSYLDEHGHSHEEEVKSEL

In general, Km refers to the concentration of substrate that gives half-maximal velocity. One may read the kcat as the maximal rate divided by the concentration of active sites. Take GST-ILR1 (Arabidopsis thaliana): the Km in data set [1] amounted to 59.9723 ± 7.5726 µM; in data set [2] it was 130.125 ± 25.3236 µM; in data set [3] it was 340.087 ± 41.4597 µM; in data set [4], 2.71 ± 0.34 µM. The kcat in data set [1] amounted to 0.021 s⁻¹; in data set [2], 0.0036 s⁻¹; in data set [3], 0.0025 s⁻¹; in data set [4] it was 0.0089 s⁻¹.

The record behind these values is PMC8608799, “The main oxidative inactivation pathway of the plant hormone auxin” (Nature Communications, 2021).
